Results from paper doi:10.1101/2023.07.17.549407 (bioRxiv, 2023).
Where no end group is shown, it is not given here. Ahx = NCCCCCC(=O)O

T1: carboxy-terminus of Hsp70 interacting protein (CHIP), recombinant (human, UniProt Q9UNE7 1-303)
T1 sequence: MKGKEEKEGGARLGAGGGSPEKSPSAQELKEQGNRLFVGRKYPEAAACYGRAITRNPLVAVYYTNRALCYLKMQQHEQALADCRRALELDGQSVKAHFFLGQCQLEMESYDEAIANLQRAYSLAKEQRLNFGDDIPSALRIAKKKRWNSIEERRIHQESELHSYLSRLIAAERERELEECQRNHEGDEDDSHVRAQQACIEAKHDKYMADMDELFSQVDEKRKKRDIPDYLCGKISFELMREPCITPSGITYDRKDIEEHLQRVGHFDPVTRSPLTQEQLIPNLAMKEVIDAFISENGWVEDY

T2: Human CHIP(21-154)-TPR domain (human, UniProt Q9UNE7 21-154)
T2 sequence: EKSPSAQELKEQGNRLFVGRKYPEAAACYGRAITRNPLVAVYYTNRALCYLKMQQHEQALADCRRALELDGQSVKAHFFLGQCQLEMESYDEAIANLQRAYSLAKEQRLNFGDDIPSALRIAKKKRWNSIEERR


Key:
[1] = target: T1, carboxy-terminus of Hsp70 interacting …; test: fluorescence polarisation
[2] = target: T2, Human CHIP(21-154)-TPR domain; test: crystal structure

binding result [1] | Binder | further results
binds | {FAM-Ahx}-IEEVD [Hsp70 C-terminal tracer (FAM-Ahx-IEEVD)] | –
binds | {FAM-Ahx}-IWWPD [IWWPD tracer] | –
– | {FAM-Ahx}-IFRPD [labeled CHIC2 peptide (FAM-Ahx-IFRPD)] | Kd [1]: 148 ± 6 nM
binds | LWWPD (not fully specified (N-terminus); printed as FITC-Ahx-LWWPD) [CHIPOpt tracer (FITC-Ahx-LWWPD)] | –
binds | Ac-LPKTPIFRPD [CHIC2 C-terminal 10-mer peptide Ac-LPKTPIFRPD] | –
– | EFLPKTPIFRPD [HsCHIC2(154-165)-c-term peptide] | binding result [2]: binds
